Laboratory results published in the supplement of paper PMC9170038.

Experiments:
MS2 coat protein [1] = test: apparent KD of MS2 coat protein, switch OFF state (with FMN for OFF switches, without FMN for ON switches); designed switch direction (-1 OFF switch, 1 ON switch): -1; higher = weaker reporter binding; conditions: FMN input: 0 or 200 uM; Eterna round: R93 (includes R88 designs)
Summary of the method: (§1)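 The designed RNA switches were transcribed on-chip from Illumina sequencing clusters. In 100 mM Tris-HCl pH 7.5, 80 mM KCl and 4 mM MgCl2, without or with constant ligand, they were titrated with SNAP-549-labelled MS2 coat protein from 0.7 or 1.5 nM to 3 µM in twofold steps. Apparent KD is the per-design median of normalised cluster binding-curve fits.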

MS2 coat protein [2] = test: apparent KD of MS2 coat protein, switch ON state; designed switch direction (-1 OFF switch, 1 ON switch): -1; higher = weaker reporter binding; conditions: FMN input: 0 or 200 uM; Eterna round: R93 (includes R88 designs)
Summary of the method: as §1

AAGUUAUUAGGAUAUACUAGUGCGAUUAAUACGCUGAUAGUACAUGAGGAUCACCCAUGUAGAAGGAAUAAAAA [JR_Exc002_Sub409]
apparent KD of MS2 coat protein (MS2 coat protein [1]): 19.1 nM | apparent KD of MS2 coat protein (MS2 coat protein [2]): 35.1 nM

GAAAAACAUGAGGAUCACCCAUGUCAGGAUAUCGAAAAAAAUAAAAAAGAAAAGAAAACGAGAAGGGACAAAAA [May 12]
apparent KD of MS2 coat protein (MS2 coat protein [1]): 45.6 nM | apparent KD of MS2 coat protein (MS2 coat protein [2]): 28.2 nM

AAGAUCAGAGGAUAUACAUAAGGUGAUGGAAACAUCGCCAAACAUGAGGAUCACCCAUGUAGAAGGCUGAUCAA [Mat - Exclusion 2 - JL mod - D61]
apparent KD of MS2 coat protein (MS2 coat protein [1]): 43.7 nM | apparent KD of MS2 coat protein (MS2 coat protein [2]): 35.7 nM

AAAAAACAUGAGGAUCACCCAUGUUAGGAUAUUCCUAAAAAAAAAAAAAAAAAAAAUGGAAGAAGGGACAAAAA [excalibur 9]
apparent KD of MS2 coat protein (MS2 coat protein [1]): 20.6 nM | apparent KD of MS2 coat protein (MS2 coat protein [2]): 21.2 nM

AACAGUACAGGAUAUACAUGAGGAUCACCCAUGUGAAAAUUAAGUGGGAAACCACAGUGUAGAAGGGUACUGGA [Mat - Exclusion 3 - Eli mod - D54]
apparent KD of MS2 coat protein (MS2 coat protein [1]): 51.9 nM | apparent KD of MS2 coat protein (MS2 coat protein [2]): 102 nM

AGUUGGCGAGGAUAUACAUGAGGAUCACCCAUGUAAAAUAAAUAAAAAAGGGAAGAAAGUAGAAGGCGCUGACA [73%, Moding Norbert Elias, 11]
apparent KD of MS2 coat protein (MS2 coat protein [1]): 175 nM | apparent KD of MS2 coat protein (MS2 coat protein [2]): 40.5 nM

AUAAUGUCAGGAUAUCAGUAGUAAAAAAAAAAAAUUACUACUGAGAAGGGACAUGAGGAUCACCCAUGUCAAAA [EX4 307: Super Stable 7]
apparent KD of MS2 coat protein (MS2 coat protein [1]): 24.9 nM | apparent KD of MS2 coat protein (MS2 coat protein [2]): 27.6 nM

AACAGUACAGGAUAUACAUGAGGAUCACCCAUGUGAAAAUUAAGUGGGAAACCACAAAGUAGAAGGGUACUGAA [Mat - Exclusion 3 - Eli mod - D59]
apparent KD of MS2 coat protein (MS2 coat protein [1]): 114 nM | apparent KD of MS2 coat protein (MS2 coat protein [2]): 22 nM

AAAAAACAUGAGGAUCACCCAUGUGAGGAUAUGACUUAAAUAAAGAAAGAAGAAAUAGUCAGAAGGCACAAAUA [Mat - Mod of Nando]
apparent KD of MS2 coat protein (MS2 coat protein [1]): 42.9 nM | apparent KD of MS2 coat protein (MS2 coat protein [2]): 28.6 nM

AACAAGUCAGGAUAUGCGAAAAGAAAAUAAGAUACACAAAAGCAGAAGGGACAUGAGGAUCACCCAUGUAAAUA [JR_Exc004_Sub011]
apparent KD of MS2 coat protein (MS2 coat protein [1]): 33.1 nM | apparent KD of MS2 coat protein (MS2 coat protein [2]): 36 nM

AAUAAACAUGAGGAUCACCCAUGUCAGGAUAUGCACAAACAAACAAACAAACAAGCAAGCAGAAGGGACACUAC [Amethyst 88]
apparent KD of MS2 coat protein (MS2 coat protein [1]): 28.6 nM | apparent KD of MS2 coat protein (MS2 coat protein [2]): 25.4 nM

AACUGACAUGAGGAUCACCCAUGUCAGGAUAUGCAUCUUAGGAAAAAAAAACUAAGAUGCAGAAGGGACAUGGG [Design 3: Super Stable 3]
apparent KD of MS2 coat protein (MS2 coat protein [1]): 15.8 nM | apparent KD of MS2 coat protein (MS2 coat protein [2]): 16.8 nM

AAAGGGUCAGGAUAUCGAUGAAUAAUAAAACAAAGGAACAUCGAGAAGGGACAUGAGGAUCACCCAUGUAUAAC [May 80]
apparent KD of MS2 coat protein (MS2 coat protein [1]): 48.4 nM | apparent KD of MS2 coat protein (MS2 coat protein [2]): 42.4 nM

GGUUGGCGAGGAUAUACAUGAGGAUCACCCAUGUGAGAGAAAAAAGUGAGAAACAAAAGUAGAAGGCGCUGACG [salish99-ex3-26]
apparent KD of MS2 coat protein (MS2 coat protein [1]): 657 nM | apparent KD of MS2 coat protein (MS2 coat protein [2]): 79.8 nM

AAGAAGUGAGGAUAUGCUGCUCGUCACAAAAGUGAUGAGUAGCAGAAGGCACAUGAGGAUCACCCAUGUAAAGA [JL eternac mod 1]
apparent KD of MS2 coat protein (MS2 coat protein [1]): 48.8 nM | apparent KD of MS2 coat protein (MS2 coat protein [2]): 40.6 nM

AGUAUGCGAGGAUAUACAUGAGGAUCACCCAUGUGAGAGAUAAGAGUGAGAAAGACAAGUAGAAGGCGCGUACA [JL Lego Mod 25]
apparent KD of MS2 coat protein (MS2 coat protein [1]): 71.7 nM | apparent KD of MS2 coat protein (MS2 coat protein [2]): 78.4 nM

GGUUGGCGAGGAUAUACAUGAGGAUCACCCAUGUGAGUGAAAAAAGUGAGAAAGAAAAGUAGAAGGCGCUGACG [salish99-ex3-47]
apparent KD of MS2 coat protein (MS2 coat protein [1]): 489 nM | apparent KD of MS2 coat protein (MS2 coat protein [2]): 161 nM

AAAAAGAUAGGAUAUACGAACAUGUCAAAAGACGUGAAGGGACAUGAGGAUCACCCAUGUAGAAGGAUUAAAAA [JL Wide Open 39]
apparent KD of MS2 coat protein (MS2 coat protein [1]): 17.2 nM | apparent KD of MS2 coat protein (MS2 coat protein [2]): 38.8 nM

AGAACACAUGAGGAUCACCCAUGUCAGGAUAUUCAAACAAAAACAAAACAAAACAAACGAAGAAGGGACAAAAG [May 2]
apparent KD of MS2 coat protein (MS2 coat protein [1]): 36 nM | apparent KD of MS2 coat protein (MS2 coat protein [2]): 32.3 nM

AAAGAUGGAGGAUAUACAUGAGGAUCACCCAUGUGGAAUCUAAAAUGGGAAAAAGAAAGUAGAAGGCCAUAAAA [Ex 3 May 40]
apparent KD of MS2 coat protein (MS2 coat protein [1]): 83.1 nM | apparent KD of MS2 coat protein (MS2 coat protein [2]): 36.7 nM

AAGUUAUUAGGAUAUACUAGUGCAAUUAAUACGCUGAUAGUACAUGAGGAUCACCCAUGUAGAAGGAAUAAAAA [Mat - Exclusion 2 - JL mod - D66]
apparent KD of MS2 coat protein (MS2 coat protein [1]): 20.6 nM | apparent KD of MS2 coat protein (MS2 coat protein [2]): 30.5 nM

AAAUGACUAGGAUAUACAUGAGGAUCACCCAUGUGUUAAAAUAAAUACACAAAAGAAAGUAGAAGGAGUCAAAG [Mat - Exclusion 3 - Mayanna mod - D125]
apparent KD of MS2 coat protein (MS2 coat protein [1]): 43.4 nM | apparent KD of MS2 coat protein (MS2 coat protein [2]): 21.5 nM

AACAGUACAGGAUAUACAUGAGGAUCACCCAUGUGAAAGAAAAGUGGCGUACCACAAAGUAGAAGGGUACUGGA [Mat - Exclusion 3 - JL mod - D23]
apparent KD of MS2 coat protein (MS2 coat protein [1]): 122 nM | apparent KD of MS2 coat protein (MS2 coat protein [2]): 26.9 nM

AACAGGACAGGAUAUACAUGAGGAUCACCCAUGUGAGAAUUAAGUAGAUUACCACAGAGUAGAAGGGUCCUGGA [Ruby 96]
apparent KD of MS2 coat protein (MS2 coat protein [1]): 99.5 nM | apparent KD of MS2 coat protein (MS2 coat protein [2]): 47.7 nM

AAAAAACAUGAGGAUCACCCAUGUGAGGAUAUGAUGAAAGAUUGAAAAAGGUUGAAAGUCAGAAGGUAUGUGAA [Exclusion 1.3]
apparent KD of MS2 coat protein (MS2 coat protein [1]): 35.7 nM | apparent KD of MS2 coat protein (MS2 coat protein [2]): 30.4 nM

AACAUGUCAGGAUAUGUAGCAAAAAGUGAUCCAAAAAAGCUACAGAAGGGACAUGAGGAUCACCCAUGUAAAAA [Ex4: 933]
apparent KD of MS2 coat protein (MS2 coat protein [1]): 44.5 nM | apparent KD of MS2 coat protein (MS2 coat protein [2]): 124 nM

AGAAAGUCAGGAUAUACGAAAAAGAAAAAAGACGAGAACGGACAUGAGGAUCACCCAUGUAGAAGGGACAAGAA [Diamond 14]
apparent KD of MS2 coat protein (MS2 coat protein [1]): 51.4 nM | apparent KD of MS2 coat protein (MS2 coat protein [2]): 66.4 nM

GGUUGAAAAGGAUAUACAUGAGGAUCACCCAUGUGAGAGAAAAAAGUGAGAAAGAAAAGUAGAAGGUUUUGACG [salish99-ex3-61]
apparent KD of MS2 coat protein (MS2 coat protein [1]): 44 nM | apparent KD of MS2 coat protein (MS2 coat protein [2]): 22.8 nM

AAAACACAUGAGGAUCACCCAUGUGAGGAUAUGCAAAACCCAUAUAAAAAGGGAAAAAGCAGAAGGCACAAAAA [wbt round 1 mod 12]
apparent KD of MS2 coat protein (MS2 coat protein [1]): 27.8 nM | apparent KD of MS2 coat protein (MS2 coat protein [2]): 22.4 nM

AAGUUAUUAGGAUAUACUUGUGCGAUUAAUACGCUGAUAGUACAUGAGGAUCACCCAUGUAGAAGGAAUAAAAA [JR_Exc002_Sub410]
apparent KD of MS2 coat protein (MS2 coat protein [1]): 21.2 nM | apparent KD of MS2 coat protein (MS2 coat protein [2]): 33.4 nM
